Experimental data published in PMC10980815, “Cell surface patching via CXCR4-targeted nanothreads for cancer metastasis inhibition” (Nature Communications, 2024).
Ends that are not written are not given here. HPMA copolymer = HPMA copolymer made by RAFT copolymerization of HPMA with N-(3-aminopropyl)methacrylamide (APMA), bearing maleimide groups for grafting

Assay: Pharmacokinetics at each cycle of a four-round treatment regimen
Assay type: in vivo, female mice
Design: PK curves: unit not given here

Substance: P-CM2-Cy3: Cy3-labeled P-CM2 (C(HPMA copolymer)YGGEVSALEKEVSALEKKNSALEKEVSALEKEVSALEK; also: Cy3 label on conjugate, position not given here)
- PK curves (Round 1, Time 0.041667 Day, replicate 1): 163.747
- PK curves (Round 1, Time 0.041667 Day, replicate 2): 180.755
- PK curves (Round 1, Time 0.041667 Day, replicate 3): 215.82
- PK curves (Round 1, Time 0.041667 Day, replicate 4): 227.965
- PK curves (Round 1, Time 0.041667 Day, replicate 5): 272.14
- PK curves (Round 1, Time 0.083333 Day, replicate 1): 152.881
- PK curves (Round 1, Time 0.083333 Day, replicate 2): 155.096
- PK curves (Round 1, Time 0.083333 Day, replicate 3): 158.378
- PK curves (Round 1, Time 0.083333 Day, replicate 4): 173.813
- PK curves (Round 1, Time 0.083333 Day, replicate 5): 181.609
- PK curves (Round 1, Time 0.166667 Day, replicate 1): 117.124
- PK curves (Round 1, Time 0.166667 Day, replicate 2): 133.5
- PK curves (Round 1, Time 0.166667 Day, replicate 3): 138.292
- PK curves (Round 1, Time 0.166667 Day, replicate 4): 141.138
- PK curves (Round 1, Time 0.166667 Day, replicate 5): 149.467
- PK curves (Round 1, Time 0.25 Day, replicate 1): 99.512
- PK curves (Round 1, Time 0.25 Day, replicate 2): 115.311
- PK curves (Round 1, Time 0.25 Day, replicate 3): 115.69
- PK curves (Round 1, Time 0.25 Day, replicate 4): 124.268
- PK curves (Round 1, Time 0.25 Day, replicate 5): 126.538
- PK curves (Round 1, Time 0.333333 Day, replicate 1): 72.638
- PK curves (Round 1, Time 0.333333 Day, replicate 2): 80.332
- PK curves (Round 1, Time 0.333333 Day, replicate 3): 81.864
- PK curves (Round 1, Time 0.333333 Day, replicate 4): 87.045
- PK curves (Round 1, Time 0.333333 Day, replicate 5): 96.736
- PK curves (Round 1, Time 0.5 Day, replicate 1): 53.965
- PK curves (Round 1, Time 0.5 Day, replicate 2): 58.639
- PK curves (Round 1, Time 0.5 Day, replicate 3): 59.336
- PK curves (Round 1, Time 0.5 Day, replicate 4): 66.884
- PK curves (Round 1, Time 0.5 Day, replicate 5): 78.186
- PK curves (Round 1, Time 1 Day, replicate 1): 21.997
- PK curves (Round 1, Time 1 Day, replicate 2): 25.01
- PK curves (Round 1, Time 1 Day, replicate 3): 29.67
- PK curves (Round 1, Time 1 Day, replicate 4): 31.811
- PK curves (Round 1, Time 1 Day, replicate 5): 36.626
- PK curves (Round 1, Time 2 Day, replicate 1): 11.902
- PK curves (Round 1, Time 2 Day, replicate 2): 17.163
- PK curves (Round 1, Time 2 Day, replicate 3): 19.932
- PK curves (Round 1, Time 2 Day, replicate 4): 21.481
- PK curves (Round 1, Time 2 Day, replicate 5): 24.221
- PK curves (Round 1, Time 3 Day, replicate 1): 3.355
- PK curves (Round 1, Time 3 Day, replicate 2): 5.764
- PK curves (Round 1, Time 3 Day, replicate 3): 7.718
- PK curves (Round 1, Time 3 Day, replicate 4): 11.103
- PK curves (Round 1, Time 3 Day, replicate 5): 11.877
- AUC0-t (Round 1, same): 2910.449 ± 479.173 ng·h/mL
- AUC0-∞ (Round 1, same): 3143.497 ± 607.036 ng·h/mL
- MRT0-t (Round 1, same): 17.874 ± 1.409 h
- MRT0-∞ (Round 1, same): 23.669 ± 4.167 h
- T1/2z (Round 1 of four-round Nanothread-1→Nanothread-2 regimen, blood fluorescence, DAS 2.0, mean ± SD, n = 5): 19.104 ± 3.483 h
- PK curves (Round 2, Time 0.041667 Day, replicate 1): 166.289
- PK curves (Round 2, Time 0.041667 Day, replicate 2): 169.535
- PK curves (Round 2, Time 0.041667 Day, replicate 3): 192.765
- PK curves (Round 2, Time 0.041667 Day, replicate 4): 283.095
- PK curves (Round 2, Time 0.041667 Day, replicate 5): 308.888
- PK curves (Round 2, Time 0.083333 Day, replicate 1): 129.263
- PK curves (Round 2, Time 0.083333 Day, replicate 2): 143.311
- PK curves (Round 2, Time 0.083333 Day, replicate 3): 159.105
- PK curves (Round 2, Time 0.083333 Day, replicate 4): 167.258
- PK curves (Round 2, Time 0.083333 Day, replicate 5): 213.448
- PK curves (Round 2, Time 0.166667 Day, replicate 1): 118.029
- PK curves (Round 2, Time 0.166667 Day, replicate 2): 120.594
- PK curves (Round 2, Time 0.166667 Day, replicate 3): 139.935
- PK curves (Round 2, Time 0.166667 Day, replicate 4): 140.364
- PK curves (Round 2, Time 0.166667 Day, replicate 5): 140.694
- PK curves (Round 2, Time 0.25 Day, replicate 1): 88.6458
- PK curves (Round 2, Time 0.25 Day, replicate 2): 101.112
- PK curves (Round 2, Time 0.25 Day, replicate 3): 104.483
- PK curves (Round 2, Time 0.25 Day, replicate 4): 106.877
- PK curves (Round 2, Time 0.25 Day, replicate 5): 110.672
- PK curves (Round 2, Time 0.333333 Day, replicate 1): 69.5736
- PK curves (Round 2, Time 0.333333 Day, replicate 2): 78.4476
- PK curves (Round 2, Time 0.333333 Day, replicate 3): 88.3019
- PK curves (Round 2, Time 0.333333 Day, replicate 4): 89.2405
- PK curves (Round 2, Time 0.333333 Day, replicate 5): 90.1636
- PK curves (Round 2, Time 0.5 Day, replicate 1): 43.1833
- PK curves (Round 2, Time 0.5 Day, replicate 2): 45.6973
- PK curves (Round 2, Time 0.5 Day, replicate 3): 51.9942
- PK curves (Round 2, Time 0.5 Day, replicate 4): 68.9589
- PK curves (Round 2, Time 0.5 Day, replicate 5): 80.0862
- PK curves (Round 2, Time 1 Day, replicate 1): 16.0352
- PK curves (Round 2, Time 1 Day, replicate 2): 27.0822
- PK curves (Round 2, Time 1 Day, replicate 3): 31.0181
- PK curves (Round 2, Time 1 Day, replicate 4): 36.116
- PK curves (Round 2, Time 1 Day, replicate 5): 40.972
- PK curves (Round 2, Time 2 Day, replicate 1): 12.4543
- PK curves (Round 2, Time 2 Day, replicate 2): 13.9537
- PK curves (Round 2, Time 2 Day, replicate 3): 16.9804
- PK curves (Round 2, Time 2 Day, replicate 4): 22.3399
- PK curves (Round 2, Time 2 Day, replicate 5): 24.6061
- PK curves (Round 2, Time 3 Day, replicate 1): 4.968
- PK curves (Round 2, Time 3 Day, replicate 2): 5.058
- PK curves (Round 2, Time 3 Day, replicate 3): 5.667
- PK curves (Round 2, Time 3 Day, replicate 4): 9.298
- PK curves (Round 2, Time 3 Day, replicate 5): 13.6533
- AUC0-t (Round 2, same): 2845.842 ± 670.957 ng·h/mL
- AUC0-∞ (Round 2, same): 3070.777 ± 804.281 ng·h/mL
- MRT0-t (Round 2, same): 17.76 ± 1.068 h
- MRT0-∞ (Round 2, same): 23.374 ± 3.332 h
- T1/2z (Round 2, same): 18.965 ± 3.022 h
